One data set addresses T1, GST-MBNL1 (1-260) (UniProt Q9NR56 1-260).
T1 sequence: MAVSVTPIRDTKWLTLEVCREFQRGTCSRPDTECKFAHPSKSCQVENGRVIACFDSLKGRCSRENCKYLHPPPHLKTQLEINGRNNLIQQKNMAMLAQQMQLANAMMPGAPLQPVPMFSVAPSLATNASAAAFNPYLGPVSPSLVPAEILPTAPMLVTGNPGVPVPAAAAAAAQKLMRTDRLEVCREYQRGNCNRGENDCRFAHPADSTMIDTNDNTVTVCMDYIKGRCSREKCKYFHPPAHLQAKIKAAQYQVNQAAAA
The data set can be described thus: EMSA; no PBZ; 10 mM Tris-HCl pH 7.5, 50 mM KCl, 1 mM DTT, room temperature 30 min, 20 ul; 6 ug protein, RNA 2.5 pmol/ul; then PBZ 15 min at room temperature. The conditions noted are these: protein: recombinant; tags: GST (N-terminal fusion); label: 5'-biotin.

Another data set concerns the target GST-PTBP1 (UniProt P26599 1-557). Described as above. The conditions noted are these: protein: recombinant; tags: GST (pGEX-6P-1); label: 5'-biotin.

Sequence of GST-PTBP1 (P26599 whole entry): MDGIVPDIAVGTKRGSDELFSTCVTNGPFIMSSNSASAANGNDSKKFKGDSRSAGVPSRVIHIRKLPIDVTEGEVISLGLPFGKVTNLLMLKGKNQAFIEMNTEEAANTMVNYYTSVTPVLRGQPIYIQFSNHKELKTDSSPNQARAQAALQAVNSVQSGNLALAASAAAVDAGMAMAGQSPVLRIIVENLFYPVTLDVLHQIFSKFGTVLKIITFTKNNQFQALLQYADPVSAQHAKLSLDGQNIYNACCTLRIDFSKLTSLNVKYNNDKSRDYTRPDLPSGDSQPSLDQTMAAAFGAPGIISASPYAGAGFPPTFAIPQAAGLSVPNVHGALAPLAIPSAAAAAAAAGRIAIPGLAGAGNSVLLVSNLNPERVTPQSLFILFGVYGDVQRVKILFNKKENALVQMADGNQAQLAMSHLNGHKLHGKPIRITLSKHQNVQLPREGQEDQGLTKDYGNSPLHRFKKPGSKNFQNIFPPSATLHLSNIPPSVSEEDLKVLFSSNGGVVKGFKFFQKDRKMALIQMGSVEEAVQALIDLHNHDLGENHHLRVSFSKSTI

B1: CUG repeat RNA probe (structured_RNA)
RNA: GCCUGCUGCUGCUGCUGCUGCUGCUGCUGCUGGC
As to B1, in the data set with GST-MBNL1 (1-260), the binding result is “binds”.

B2: CHRNA1 polypyrimidine tract RNA probe (ssRNA)
RNA: UUUCUCCUUUUCUGUGGGUGGACAGGGUGACAUGGUA
B2: in the data set with GST-PTBP1, the binding result is reported as “binds”.
